{"source": "the nanobody polyreactivity screen of Harvey et al. (2022)"}
{"assay": "yeast display, Sf9 membrane polyspecificity reagent, FACS + sequencing; frameworks hold sequencing errors", "outline": "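Galactose-induced (36–48 hours) yeast carrying a synthetic nanobody display library were exposed to 10% biotinylated, detergent-solubilized Sf9 membrane reagent at 4 °C for 1 hour. FACS followed streptavidin microbead enrichment, using low and high (top ~1%) gates for expression (anti-HA) and reagent binding (streptavidin). Colony PCR, MiSeq 2 × 250 sequencing and CDR-length filtering followed. Labels for polyreactivity reflect the gate of origin.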"}
{"sequence": "QVQLVESGGGLVQAGGSLRLICAASGSTSQINAMGWYRQAPGKERELVAAINSGDITNYADSVKGRFTISRDNAKNTVYLQMNSLKPEDTAVYYCNADILVVKFDYWGQGTQVTVSS", "polyreactivity (PSR sort gate)": "low polyreactivity"}
{"sequence": "QVQLVESGGGLVQAGGSLRLICAASGSTYSYYAMAWYRQAPGKERELVAAINSSGGSTYYADSEKGRFTISRDKAKNTVYLQMNSLKPEDTAVYYGAAARRRTGVRMDYWGQGTQVTVSS", "polyreactivity (PSR sort gate)": "high polyreactivity"}
{"sequence": "QVQLVESGGGLVQAGGSLRLICAASGYIFDHYAMGWYRQAPGKERELVAAINWSGGRTYYADSVKGRFTISRDNAKNTVYLQMNSLKPEDTAVYYCAAGGVSENDYWGQGTQVTVSS", "polyreactivity (PSR sort gate)": "high polyreactivity"}
{"sequence": "QVQLVESGGGLVQAGGSLRLICAASRFTFPGYTLGWYRQEPGKERELVATINRSGSTTYADSVKGRFTISRDNAKNTVYLHMYRLKPQDTADYYCAAVVWGSGNKMDYWGQGTQVTGSS", "polyreactivity (PSR sort gate)": "high polyreactivity"}
{"sequence": "QVQLVESGGGLVQAGGSLRLICAASRRTYYSNAMGWYRQAPGKERELVAASTSTDDSTYYADSVKGRFTISRDNAKNTVYLQMNSLKPEDTAVYYCNTDGLIAIRGLWWVEYDYWGQGTQVTVSS", "polyreactivity (PSR sort gate)": "low polyreactivity"}
{"sequence": "QVQLVESGGGLVQAGGSLRLICAATGITFEGYAMGWYRQAPGKERELVAAIRSSGTSTYYADSVKGRFTISRDNAKNTVYLQMNSLKPEDTAVYYCNRARSSSRYDYWGQGTQVTVSS", "polyreactivity (PSR sort gate)": "low polyreactivity"}
{"sequence": "QVQLVESGGGLVQAGGSLRLICAAWSIFYLNAMGWYRQAPGKERELVAAISSAGSTYYADSVKGRFTISRDNAKNSVYLQMNSLKPEDTAVYYCAAYWYDSPGVTEIWYDYWGQGTQVTVSS", "polyreactivity (PSR sort gate)": "low polyreactivity"}
{"sequence": "QVQLVESGGGLVQAGGSLRLICAAYGLTFTRNAMGWYRQARGKERELVAGITRGGSTYHADSVKGRFTISRDNAKNTVYLQMNSLKPEYTAVYYCAAGVQYARYQARYYYWGQGTQVTVSS", "polyreactivity (PSR sort gate)": "high polyreactivity"}
{"sequence": "QVQLVESGGGLVQAGGSLRLICADSGLTFSCYTMGGYRQAPGKERELVADITVSGGTTYYADSVKGRFSISRDNAKNTVYLQMNSLKPEDTSVYYCNAQDTFTYYSSSPTYDYWGQGTQVTVSS", "polyreactivity (PSR sort gate)": "low polyreactivity"}
{"sequence": "QVQLVESGGGLVQAGGSLRLICADSGRIVPGYAMGWYRQAPGKERELVAAISTNGGRTYYADSVKGRFTISRDNAKYTVYFQRNSLKPEDTAVYYCNAARAVYTQKRFDSWGQGTQVTVSS", "polyreactivity (PSR sort gate)": "high polyreactivity"}
{"sequence": "QVQLVESGGGLVQAGGSLRLICAPSGIIFTSNTMGWSRQAPGNERECVASINWNGSSTYADSVKGRFTISRDIAKNTVYLQMNSLKPEDTAVFYCNADYNRNSVQFSLYDYWGQGTQVTVSS", "polyreactivity (PSR sort gate)": "low polyreactivity"}
{"sequence": "QVQLVESGGGLVQAGGSLRLICDASGRIFATNAIGWYRQAPGKERELVATITRSAGRTYYADSVKGRFTISRDNAKNTVYLQMNSLKPEDTAVYYCAASYWDTEPGYREYDYWGQGTQVTVSS", "polyreactivity (PSR sort gate)": "low polyreactivity"}
{"sequence": "QVQLVESGGGLVQAGGSLRLICDASGSIFEDYTMGWYRPGPGKERELVAASSRSGVRKYYADSVKGLFTISRDNAKNTVNLQMNSLKPEDTGVYYCARTRVASKGYDYWGQGTQVTVSS", "polyreactivity (PSR sort gate)": "high polyreactivity"}
{"sequence": "QVQLVESGGGLVQAGGSLRLICDASGSTFERYALGWYRQAPGKERELVAAITWGGGSTNYADSVKGRFTISRDNEKNTVYLQMNSLNPEDTAVYYCRPLYLGGDYWGQGTQVTVSS", "polyreactivity (PSR sort gate)": "low polyreactivity"}
{"sequence": "QVQLVESGGGLVQAGGSLRLICSASGSIFPQYAMVSYRPEPGKERALFAAISYSGGRSYYADSVKGRFTISRDIAKNTVYLQMNSLKTEYTGVYYWAARVKRGIPTYGKCYYAFGDWGQGTQVTVSS", "polyreactivity (PSR sort gate)": "high polyreactivity"}
{"sequence": "QVQLVESGGGLVQAGGSLRLISAASGITFRYYVMGWYRHAPGKERELVASISWGGGSTYYADSVKGRFTISRDNAKNTVYLHMNSLIPEDTAVYYCAAEYWVPAVKFGYEFWGQGSQVTVSS", "polyreactivity (PSR sort gate)": "high polyreactivity"}
{"sequence": "QVQLVESGGGLVQAGGSLRLISAASGRTFRVYAIGWYRPAPGKEREFVATISVRGGSTYYADSVKGRFTISRDNAKNTVYLQMNSLKPEDTAFYYCAADSYPYVYALYDYWGQGTQVTVSS", "polyreactivity (PSR sort gate)": "low polyreactivity"}
